Here are results for two sequences from paper PMC8266642.

This data set deals with T1, StrepHP1021 (HP1021) (Helicobacter pylori 26695) (UniProt O25665).
T1 sequence: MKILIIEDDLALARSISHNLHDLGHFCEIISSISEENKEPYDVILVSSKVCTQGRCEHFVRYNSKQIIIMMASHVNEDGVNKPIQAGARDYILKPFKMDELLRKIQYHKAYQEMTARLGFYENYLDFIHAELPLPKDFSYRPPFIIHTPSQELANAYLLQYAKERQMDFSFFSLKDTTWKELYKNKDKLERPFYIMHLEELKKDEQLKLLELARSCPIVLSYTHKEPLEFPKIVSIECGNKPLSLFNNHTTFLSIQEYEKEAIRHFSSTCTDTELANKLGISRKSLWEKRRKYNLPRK
Description: EMSA. The settings on record: EMSA: 50 mM Tris-HCl pH 8.0, 100 mM NaCl, 0.2% Triton X-100, 5 nM DNA, 37 C 20 min; 4% PAGE in 0.5x TBE or TB at 20-25 C. SPR: 50 mM Tris-HCl pH 8.0, 100 mM …. In general terms: Mobility shift assays separate free from complexed probe on a gel.

For “ATGATATTTATATGATATTTTTGGGTAATTTAAGATGAATATCGGTAGCGTTTTGAATAAATTTGTTACTACTTTTCACTTTATTACGCCAAATTTTCCCTTATTACAAACAACTTTGAAATAAATGATTTCCATTTAAAAATCAGCCTTATACTTCTAATAGGTTGCCTTGAGCAACACTTTAATACAAGGAGTCTAAATGAAAGACGCAAATTCGAAGCTATTCTTACTCC (double strand) [phyuA]”, the binding result is reported as “binds”.
As for “GGAGTAAGAATAGCTTCGAATCTCTATTTTGAAAACCCCTATTTCAGGCTTTTGAGTTTTTTAGGCTCTAGTTTTATCCACCCCTTTGGATTTGATTGGTTAGTCCCAGATAGCTTTTTTTCTTATAGCGTGTTTAGAGTGGATAAATTATCGCTAGGGCTTGTTTTTTTGGCTTGCATTTTTTTGAGCACTAAACCATTGAAAAAATATAG (double strand) [FAM-HP0180 fragment]”, the entry is “binds more weakly”.
